Entries after “also recorded” stand apart in the source; their conditions may differ.
Key:
[1] = system: POTH1 overexpression lines; test: Exogenous GA3 application to POTH1 overexpression lines; format: in vivo, Solanum tuberosum
Description: Many of the traits of the phenotypes observed in POTH1 overexpression lines were similar to GA-deficient mutants. These similarities included decreased plant height, decreased internode length, and darker green coloration of the leaves (van den Berg et al., “Morphology and [^14C]Gibberellin A12 Metabolism in Wild-Type and Dwarf Solanum Tuberosum ssp. Andigena Grown Under Long and Short Photoperiods,” J. Plant Physiol. 146:467-473 (1995), which is hereby incorporated by reference in its entirety). Because of this, exogenous GA3 was applied to determine whether the overexpression lines were responsive to GA treatment. The shoot apex of overexpression lines was sprayed to runoff with 10 μM GA3 in 0.002% (v/v) ethanol or with 0.002% (v/v) ethanol alone. […] Palisade and spongy parenchyma organization is partially rescued in leaves from line 15 treated with GA3 (FIG. 5G). The GA3-treated leaf (FIG. 5J) of the severe mutant, line 15, is more similar in morphology to the wild-type leaf (FIG. 5K). Leaflets are more ovate in form rather than the typical mouse-ear shape. Wild-type leaves have a prominent mid-vein (FIG. 5L), whereas the mid-vein (FIG. 5M, arrow) is more prominent in the mutant GA3-treated leaf than in the mutant untreated leaf (FIG. 5N). […]

POTH1 = test: Yeast two-hybrid interaction with POTH1; format: binding, Solanum tuberosum; conditions: nutritional selection and lacZ activation, yeast AH109
Sequence of POTH1 (as listed by the source): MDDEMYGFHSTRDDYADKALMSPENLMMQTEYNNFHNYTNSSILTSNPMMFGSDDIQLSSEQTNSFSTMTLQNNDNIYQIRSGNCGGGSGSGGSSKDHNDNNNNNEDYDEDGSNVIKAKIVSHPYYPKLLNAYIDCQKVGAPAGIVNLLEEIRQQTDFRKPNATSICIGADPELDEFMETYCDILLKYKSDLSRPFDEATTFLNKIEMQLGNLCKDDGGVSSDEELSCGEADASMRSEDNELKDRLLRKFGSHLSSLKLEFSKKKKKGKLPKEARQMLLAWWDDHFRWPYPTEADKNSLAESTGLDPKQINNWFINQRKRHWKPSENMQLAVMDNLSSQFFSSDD
Description: The Matchmaker two-hybrid system (Clontech, Calif.) was used for the yeast two-hybrid screen. Yeast transformation and plasmid rescue into DH5-α E. coli cells were according to the manufacturer's instructions. Full-length POTH1 was cloned into the pBridge (Clontech, Calif.) vector and used as bait to screen the potato (S. tuberosum ‘Desireé’) stolon cDNA library in pAD-GAL4-2.1 (Stratagene, Calif.). Positive interactions were confirmed by cotransforming yeast strain AH109 with each purified pAD plasmid and pBridge: POTH1 and plating on -leucine/-tryptophan (transformation control) and -leucine/-tryptophan/-histidine/-adenine (selection) nutrient medium. Induction of the AH109 reporter gene, lacZ, was measured with a yeast β-galactosidase assay kit (Pierce Chemicals). β-galactosidase activity (FIG. 9B) was determined from a known density of yeast cells and calculated as 1000×OD420/time of color reaction (minutes)×volume of yeast culture (ml)×OD600.
The StBEL-05 deletion constructs were amplified by PCR, then cloned into the vector, pGAD, in-frame with the GAL4 activation domain. POTH1 deletion constructs were amplified by PCR, and cloned into pBridge (Clontech) in-frame with the GAL4 binding domain. Sequencing of selected cDNAs and constructs was performed at the Iowa State University DNA Facility. For deletion analysis, modified constructs of POTH1 were cloned into the pBridge vector for fusion with the DNA-binding domain of GAL4 (FIG. 10A). For StBEL-05, constructs were cloned into the pGAD vector for fusion with the activating domain of GAL4 (FIG. 10B). Deletion constructs were made from both the amino and carboxy termini. These mutants were then tested for interaction in the yeast two-hybrid system by cotransforming into yeast strain AH109 with the corresponding full-length partner (StBEL-05 in pGAL4 or POTH1 in pBridge). All constructs were sequenced to verify that they were in-frame. Positive interactions were verified for lacZ induction by using a β-galactosidase assay (Pierce Chemical Company). For POTH1, seven deletion constructs were tested (FIG. 10A). For the BEL TFs, a fusion construct of StBEL-05 (653 aa of StBEL-05 sequence) and nine deletion constructs were tested (FIG. 10B).

C=C1C[C@]23C[C@@]1(O)CC[C@H]2[C@@]12C=C[C@H](O)[C@@](C)(C(=O)O1)[C@H]2[C@@H]3C(=O)O [GA3]
effect on leaf morphology ([1]; 10 μM GA3 sprayed on shoot apex): partially rescued the leaf morphology of both severe and intermediate phenotypes; also recorded: partial reversal of the leaf phenotype
effect on dwarf phenotype ([1]; GA3 application): completely rescued the dwarf phenotype

B1: StBEL-11: BEL transcription factor from Solanum tuberosum, SEQ ID NO:4 (protein, listed as Solanum tuberosum)
chain: MTFRSSLPLDLREISTTNHQVGILSSSPLPSPGTNTNNINHTRGLGASSSFSISNGMILGSKYLKVAQDLLDEVVNVGKNIKLSDGLESGAKEKHKLDNELISLASDDVESSSQKNSGVELTTAQRQELQMKKAKLVSMLDEVDQRYRQYHHQMQMIATSFEQTTGIGSSKSYTQLALHTISKQFRCLKDAISGQIKDTSKTLGEEENIGGKIEGSKLKFVDHHLRQQRALQQLGMMQTNAWKPQRGLPERAVSVLRAWLFEHFLHPYPKDSDKIILAKQTGLTRSQVSNWFINARVRLWKPMVEEMYMEEVKKNNQEQNIEPNNNEIVGSKSSVPQEKLPISSNIIHNASPNDISTSTISTSPTGGGGSIPTQTVAGFSFIRSLNMENIDDQRNNKKARNEMQNCSTSTILSMEREIINKVVQDETIKSEKFNNTQTRECYSLMTPNYTMDDQFGTRFNNQNHEQLATTTTFHQGNGHVSLTLGLPPNSENQHNYIGLENHYNQPTHHPNISYENIDFQSGKRYATQLLQDFVS
interaction with POTH1 (POTH1): showed selective interaction

B2: StBEL-29: BEL transcription factor from Solanum tuberosum, SEQ ID NO:12 (protein, listed as Solanum tuberosum)
chain: QGLSLSLSSSQQPGFGNFTAARELVSSPSGSASASGIQQQQQQQQSISSVPLSSKYMKAAQELLDEVVNVGKSMKSTNSTDVVVNNDVKKSKNMGDMDGQLDGVGADKDGAPTTELSTGERQEIQMKKAKLVNMLDEVEQRYRHYHHQMQSVIHWLEQAAGIGSAKTYTALALQTISKQFRCLKDAIIGQIRSASQTLGEEDSLGGKIEGSRLKFVDNQLRQQRALQQLGMIQHNAWRPQRGLPERAVSVLRAWLFEHFLHPYPKDSDKMMLAKQTGLTRSQVSNWFINARVRLWKPMVEEMYLEEIKEHEQNGLGQEKTSKLGEQNEDSTTSRSIATQDKSPGSDSQNKSFVSKQDNHLPQHNPASPMPDVQRHFHTPIGMTIRNQSAGFNLIGSPEIESINITQGSPKKPRNNEMLHSPNSIPSINMDVKPNEEQMSMKFGDDRQDRDGFSLMGGPMNFMGGFGAYPIGEIARFSTEQFSAPYSTSGTVSLTLGLPHNENLSMSATHHSFLPIPTQNIQIGSEPNHEFGSLNTPTSAHSTSSVYETFNIQNRKRFAAPLLPDFVA
interaction with POTH1 (POTH1): showed selective interaction

B3: pAD5-9: StBEL-05 deletion construct, aa 1 through 315 (protein)
chain: MNPNNYMQGYTTSDTQQQQQLLFLNSSPAASNALCHANIQHAPLQQQHFVGVPLPAVSLHDQINHHGLLQRMWNNQDQSQQVIVPSSTGVSATSCGGITTDLASQLAFQRPIPTPQHRQQQQQQGGLSLSLSPQLQQQISFNNNISSSSPRTNNVTIRGTLDGSSSNMVLGSKYLKAAQELLDEVVNIVGKSIKGDDQKKDNSMNKESMPLASDVNTNSSGGGESSSRQKNEVAVELTTAQRQELQMKKAKLLAMLEEVEQRYRQYHHQMQIIVLSFEQVAGIGSAKSYTQLALHAISKQFRCLKDAIAEQVKAT
modifications: left off: large carriers
interaction with POTH1 (POTH1): demonstrated an interaction; also recorded: interaction with POTH1

B4: StBEL-14: BEL transcription factor from Solanum tuberosum, SEQ ID NO:8 (protein, listed as Solanum tuberosum)
chain: MVNHQLQNFETNPEMYNLSSTTSSMDQMIGFPPNNNNPHHVLWKGNFPNKINGVDDDDHGPSSSKNIISEQFYQHGSHENMLTTTTTHHDDHQGSWHHDNNRTLLVDDPSMRCVFPCEGNERPSHGLSLSLCSSNPSSIGLQSFELRHQDLQQGLIHDGFLGKSTNIQQGYFHHHHQVRDSKYLGPAQELLSEFCSLGIKKNNDHSSSKVLLKQHESTASTSKKQLLQSLDLLELQKRKTKLLQMLEEVDRRYKHYCDQMKAVVSSFEAVAGNGAATVYSALASRAMSRHFRCLRDGIVAQIKATKMAMGEKDSTSTLIPGSTRGETPRLRLLDQTLRQQKAFQQMNMMETHPWRPQRGLPERSVSVLRAWLFEHFLHPYPSDVDKHILARQTGLSRSQVSNWFINARVRLWKPMVEEMYLEETKEEENVGSPDGSKALIDDMTIHQSHIDHHQADQKPNLVRIDSECISSIINHQPHEKNDQNYGVIRGGDQSFGAIELDFSTNIAYGTSGGDHHHHGGGVSLTLGLQQHGGSGGSSMGLTTFSSQPSHNQSSLFYPRDDDQVQYSSLLDSENQNLPYRNLDGGTTSS
interaction with POTH1 (POTH1): showed selective interaction

B5: StBEL-22: BEL transcription factor from Solanum tuberosum, SEQ ID NO:10 (protein, listed as Solanum tuberosum)
chain: TSVYETAGLLSEMFNFQTTSTAATELLQNQLSNNYRHPNQQPHHQPPTREWFGNRQEIVVGGSLQVTFGDTKDDVNAKVLLSNRDSVTDYYQRQHNQVPSINTAESMQLFLMNPQPSSPSQSTPSTLHQGFSSPVGGHFSQFMCGGASTSSNPIGGVNVIDQGQGLSLSLSSTLQHLEASKVEDLRMNSGGEMLFFNQESQNHHNIGFGSSLGLVNVLRNSKYVKATQELLEEFCCVGKGQLFKKINKVSRNNNTSTSPIINPSGSNNNNSSSSKAIIPPNLSTAERLDHQRRKVKLLSMLDEVEKRYNHYCEQMQMVVNSFDLVMGFGAAVPYTALAQKAMSRHFKCLKDGVAAQLKKTCEALGEKDASSSSGLTKGETPRLKVLEQSLRQQRAFQQMGMMEQEAWRPQRGLPERSVNILRAWLFEHFLHPYPSDADKHLLARQTGLSRNQVANWFINARVRLWKPMVEEMYQREVNEDDVDDMQENQNSTNTQIPTPNIIITTNSNITETKSAATATIASDKKPQINVSEIDPSIVAMNTHYSSSMPTQLTNFPTIQDESDHILYRRSGAEYGTTNMASNSEIGSNMITFGTTTASDVSLTLGLRHAGNLPENTHFSG
interaction with POTH1 (POTH1): showed selective interaction
